Measurements reported in the domain aggregation screens of Martell et al. (2025).

Assay: soluble fraction after stress (log2 fold change); higher = more stays soluble; pooled small domains, quantitative proteomics
Conditions: stress: 75 degC
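Further: 20 min heating vs room temperature control held 20 min.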

Sequence | soluble fraction (log2)
HMGVEVEVPNVKGKLVADAEYELGLAQLTPVRTDSAYNRNLPPGTVLEQLPASGSHVKEGREIYLTINST | 0.284
HMGVGERIKARRKEIGLSAEQVAKELGVSPATVYRYESNDIMNMRIDKLEPIAKALHTTPAYLMGWE | -0.0856
HMGVGVKSTEVDYQRTSSGSDIPTDDAAWTKTIPAVKVNTFLWTRTKINYTDGTSAIFYSVGY | -3.05
HMGVGVPVTLLLEKLGEDTLSAQQIMERLGLKSRASFRKVYLVPALEQKLIEMEFPDKPNSSKQRYRR | -0.859
HMGVISRVITFWQNGFTVDDGPLRAFDDPANMAFMESIGRGEAPAELAPKTRTQRVNINLVQRHEPYSAPK | -0.147
HMGVITVRPPIVVRDFAIALNLKPFQVIGNLMELNKVVSVSSVIEEADARKVAERHGYTLEIRH | -1.67
HMGVMNEYEELRDRYLTGQIWKIGDLVEAKGIEGKIIQRGTNYITFNDSQGKVHKAWLHEIKV | -0.00315
HMGVNNDIIKHRKLEFMIEMLPDTFTRKEANEIGEGLGISLATLTRYLSSDAFERTGHGRYRKKD | -1.35
HMGVPTEQEIGKRILAWRKLRGMTLQQLADKAGVGLTTIHNLETGLWYAKMPTYLYIAEALGVSLDALIYG | -1.76
HMGVPVTAPMPGKVLKVTVSVGAAVKNGDLVLVLEAMKMENEIFATANGVVKEIRSREGDTVNSGDVMMVI | -2.19
HMGVRPAALGFQKVRIEPQVGTFREASGDVITPRGLIHAEWKRDEENALHLHYTLPDGVAYA | -0.0752
HMGVSDDMARGVVRARQFLSDFAAVPLDRMTPAEAVARARQLKSELETDAKHSPWLLDVLSNA | -0.116
HMGVSEIGSPAWMESKLVTLASYEGSLDGLRTLWGGVAQHRARIPVESWDRLFAAKEEGKARLVKLGRT | -1.25
HMGVSLREVPVAEHGDWIGRPIKELGIPAEVLIVLVRRADGTTVVPKGGTVLQQGDMLVVNEWEE | -1.16
HMGVTDSSYNVLRRQILEMLSVQQRTPADLARLIEADKEEIAAVIRFLLDKGEIQMEDGMLQTK | -0.821
HMGVVEEVAADFEGRAVVGKVDVDEQTELARRFGIMSIPTLVVMKGGKVVEQAVGARGKADIAAMLERH | 0.183
HMGYINLNVKVSPEWRDFWRSAYASVVAGYHQNKEHWNTIILDGSIPDKDIKRMIAESYDLVSD | -0.561
HMGYLNDRQRLIKDFITENQPLKVSDLVKQFPNIGLSTLKKDLQYLRGEQVLTMIGKGKGSVYVLNKK | -0.975
HMGYNDQEVKSNLITLLSTSKTGLSGVEISAQLGINRVTMTKFLNVFAAEGIIKQKNIGNLNLWLVEEGTE | -3.44
HMGYTTSFVVQLKNAVSISFDEIDQNLRKLPGVEDVVIVEEAAMAYLKVDRQHFREEQLAHFEFVRQ | -1.99
HMGYVQLTAREKEVLQGLVDGASYKMIAAKLDIRFGTVHTHVKNIYEKLHVNSASEAVVKAIRQRL | -2.26
HMHADIAATVVATMRQLGVLGLPRNYEIFYEALSGTNRELSLAVVSLSNRPTQDDLDRIGRRFFA | -1.33
HMHAEEIAREAKEALERGEEFHFAGITVRSEEALEFLEEWLRKFF | -1.02
HMHALSVKFSDEAAKTLPYDILSALRDVLALDPRPGYSRDENKIYRFEYADYNISFSVKDKTLTVLSAEK | -2.15
HMHAPRIEVVQIDPEKIGALIGPGGKNIRRITEVTGANLDIDEDNSGKIRVYASDSEAMNRALQEIDLVT | 0.308

Sequence | soluble fraction (log2)
HMHDHKTRLQELAAQRFGSAPSYLLTADGPAHDRRFHASVEVGGRSFGPGTGKSKKRAEQVAAHIAWDALS | 0.238
HMHDIPDITDLRPLRHTLGLTLAHAAQQLNTTTATISRLERGQHRNDHLATTYRTWLHTHPT | -0.291
HMHDLSQQIVRYLIQQGGSSSLTDKSDPQEIYRTFKVSKKKYKQALGNLYKSKTIVITSGKIELVD | -3.03
HMHDYNTIVGVIEMRDKNIPLTSIRQRYGIGYSGIDLILTRYKDSGLTLKEFLALDPSQAEELIYPPK | -0.961
HMHEHWDGSGFPKHLRGANIPLGARVIAVADTYDSITSSRAYRAGSTHEAAEREMRRVSGTQLDPE | 0.0624
HMHEIVDTVLQVKQSVEADPLIAPALKNKEIVFQLNAKGVFQFKNAVIQVASALGISKNTVYMHLRNNK | -3.04
HMHETMGQIIKRLRKERGLTQESLAERLGVTFQAVSKWETDAGMPDVSQIVPLANAFGVRTDVLFGLEGRD | -0.744
HMHEYSRIYQQQWWDNATGADAYHVIHSARSRAAQDPEAARALEYLEEQFRIRYGVRTEDFLGYLHD | -1.2
HMHFENEETFVLPLVREGFSEQQQLEMVDRLLFDANTDNPRWIIDWMASELPSTQRELLLDLEKRLAEVRS | -0.0441
HMHFEWNELRKAINDFLAEQNMNEDKQLGPYFIQRDIVVPETGTEIDSKKFSEVFKHKVIMYLFDDAAKQ | 0.0433
HMHGESISVPDLRGQKMERMPAFLADKHLQFKVIDSLFDLEKNPGTVLEQDPAPNSKVKEGRTIYLTVNAQ | -0.00257
HMHGQGTYTSPDGTKYVGDWQDEKMHGQGTYTYPDGMKFVGEFKDNKPWNGTGYDKYGNVKATFSNGVGKS | -0.0508
HMHGSSSTVPPVKGLSFEQARLTLAENDLTVEISDSIYDRNARPGTVVESWPRAGSVVKQGRQVYVTVTAF | -0.894
HMHHDDHNQQEEIKEKLLAMVADGERHHVTEVRQLDEDWDMVTKVMKELMDEEQLLMDGSYLILSA | 0.116
HMHHSGLRQSQFDEISRQIRSLLEMESLSLQELKTRMEDVPEEQLTKVVSYLLSEEIIRQENGRLQ | 0.254
HMHKAVVGPPNARKLAVTYGFKRWPALVFFRDGKYLGAVDGLRLWADLVREADEIMHSEPHYP | 0.0613
HMHKFMEQNQDRRLSRMKELIGILSEAAKTYYQESREIMSNFQYDRMYDELLELEKETGVVMAGSPTQKV | -0.276
HMHKKQEVQDSIDAAEEFMRASGVPAELITSKRAYAVKAIYADAVDKGTPDEIVKKDGMIVALISQMRS | 0.421
HMHKLTIEEALNYKTPANAGGPYSGKPFRDIYDQRGKAAVISFAKYYLSKATPEDPMVEVYRTLLDGAMEL | -1.61
HMHKREKSFFETIYDDIPGIGKKRRVQLLSAYPTLDSLKSVTLEELKQIVPEESAKLILEKRDSR | 0.0151
HMHPARITATVRVGEGDLVDIEREAELGGPIHSKGVMILSSFLGARYARTVPLSLSASLVFEQSY | 0.0581
HMHPDALTEREREVLSLLADGLSNREIAARLVLALGTVKWYISVIYSKLGVTRRTQAIARARELHLV | -0.0116
HMHPEETVNLILDAAFRLFLEKGYEHTSIQDIIGQLGGLSKGAIYHHFNSKEDILIAVTDRMTA | -2.12
HMHPEQTLEKIVDISAELFAKKGYEQTSIQDILDATGLSKGGLYHHFKSKEEILEAVMQKRVQY | -0.154
HMHPFELNTVTEGQLKRLPFLSDLQIRELLEYRSRYGKMLTLYELKNVEAFDLETISLLVPFIYISEI | -1.36
